Measured values as given in patent publication US20220403428A1.

Biological target: PcPsiH, Psilocybe cubensis tryptamine 4-monooxygenase (cytochrome P450 enzyme) (Psilocybe cubensis) (UniProt P0DPA7)
Assay: cell-based or functional assay

psilocin titer | psilocybin titer | extracellular accumulation of tryptamine | Substance
135 mg/L | 117 mg/L |  | PcCpr, putative Psilocybe cubensis cytochrome P450 reductase (enzyme)
 |  | 90 mg/L | native S. cerevisiae cytochrome P450 reductase (Ncp1) (from UniProt P16603 2-691) (enzyme)
